The source of these data is the DeepSol protein solubility set.

The nature of the data set: soluble on expression in E. coli; label from the status in PepcDB or PDB records.
Consider “MLLVSTGAAGAEVIYVEPGASIQAAVNNSTTGDFIIVKAGEYEENIVVNVSGVTVSSEPEKSGSVFIRAGDRNSSVFQVKADNVTISGFNITGSGEFFSTHEASSPRDSFPKDPDGQGVSDIPELRKTYSLGSGEVFISRSTEFDCPQAGICLDQVENCTIERNHIFENQYGVYLQGSMNNTLSNNTFFRNGILIDEGCSRNTAENNSIEEGNLIIGAHCWDNIISRNRLSNGGGIGIACCGGGNLVSNNEIINCSTGVDMYDTQARTVLCGNLITDCDYGIYLILVYDSRVYNNTISNSSRGIFLRENSQNNELSGNIINSSNESGIYLLDHCADNRIFNNYFNNTVNVKAENSKGNSWNITKAPGINIAEGPYLGGNFWADLNGTGYSQIAEDSDSDGICDLPYNVNGCDYDYLPLARLPFSPSLSGGNLKLLEHHHHHH”, for which the “soluble on expression in E. coli” value was “not soluble”.

As for “MLLVSVISCLLISVLAKDAVTPRVGSQCTKNQVVRKLTVYEDGALEAECGPVPCGEVGKRCIDDQTSCRAETDVFSGMRWAPNGESILLRCCTMHAKNKIYVGTDVVAAGSFYEGGEVAEKDLYGDKGGAEYDFVANARTEQGGVRVWVYRMICAKGEKPVDFDPITTTSAPRVIKTTPAPTTTPTVEEEAEEAEQLEEDQPNDNEAEIVESNDEEEVVEEETEEEEEVTTTPAPKPFNPLRYRPPHFPRQSTGIRRA”, the “soluble on expression in E. coli” value is listed as “not soluble”.

For the sequence “MLMGMKPLRLCAILASIPPLAMVVRGRIRPKNSRKRFPTIVVLGTAQYDGVPSRQFAARLKWAAEQWHTQRSQKVVTVGGKLPEDRFTEAAVAREYLIKEHVDSDLIVAVEQGHDTRGSLRAALSELEQPILIITDPNHSLRAELIARSEGIAAWASSTPYCPTTFPRWQWWWTFVHEQGGLCVVLIELVAGKDVAQKVEDALRRLQAWLRPSRRARHEQLREERLEHHHHHH”, the “soluble on expression in E. coli” value is “not soluble”.

For the sequence “MLPRGALVLNPFSEKAVSPEDRDMVLRRGIAALDCSWKKVKKSSVIFQTARNHRSLPFLVAANPTNYGKPCILSTAEAVAATLYIVGLKDIASDIMSYFKWGPHFLDLNRELLEAYSRAENSLEVVEIQKKFIGGLEHHHHHH”, the “soluble on expression in E. coli” value was “not soluble”.

Turning to “MLPTRSLLPFFLAPALLASAASQAAMEALDNDSLSQVTGQAGISLRLDLRAGAARVAWVDDGGSLSLRNLVIDNGCVKAGDCPDGRGGNIPLGAAQLGLSLPIFGVEQPTLALDVTTGSGGGQQLAISLPDLATINDQLIASGLPAQRIRLRVASDLYIGDNSIGRIELRDITDLRGTIKVWGH”, the “soluble on expression in E. coli” value was “not soluble”.

As for “MLQNPPRITSTASIVGPKEGKGPLRLFFDNIIEDEMWGEKSWEKAESKLIRETFSKVLQKGNKTSQEIDYVISGDLLNQCIAANFGLRESDVPFFGVYGACSTIAESMSIGAMLVDGGFADNVVCITSSHFCSAEKQFRFPLELGTQRPPSAQWTVTGSGGVLISNDGSGPYITHITTGKIVDMGIKDANNMGAAMAPAAVDTIVTHFKDTGFTPESYDLILTGDLGAIGREICVELTREQGFNIENIYNDCGLMIYDREKQDTHAGGSGCGCAATVFAGFVYKKLMDGTLKNVLFVATGALLSPVSTQQGESIPSIAHAISITTSPERLEHHHHHH”, the “soluble on expression in E. coli” value was “not soluble”.

Turning to “MLQPPHQSLQVAAVPAQRAPVRDRDQDAPWHTEAVCRRDEAGLFFAPSKEPTAARLSREEAAKRVCARCPVMVECREHALLQPEPYGVWGGLTAAERRVVLARRRRRDVELKKAARGTIAAAG”, the “soluble on expression in E. coli” value is listed as “not soluble”.

“MLRPKEACQRLGISYATLREYVKKGYIKPVILQSGKQRFGEEDVERLMGIIRKRKVILYARVSSSTQKDELVNQVKYLEEQVKEYDLVITDIGSGLNMKRKGFLKLLRMILNNEVSRVVVAYPDRLVRVGFEILEEVCKAHNCEIVVLNQEDKEEELVEDLMSALVSFSGKLYGMRSHEYEKVKKCAEELKNWKI”: the “soluble on expression in E. coli” value is on record as “not soluble”.

Consider “MLSGDLAEFPFPSLVGALMSAGRTGRLHLRPPFLEAEVYLRGGQVVHAKAQAGERALEGEEALDLLVGLRRAPFVFEPEALPPHTTLLGGLEVPARLAQAQAAWEKVKLPADWGLRLRLPREGSAVELPPEALGLLARVEGKRIAEVLLAPGVLRQARVLSTLLEVGALEAYPEVDLPPEPLVVLPIYGPGSGVAYVDEALYAQWARAIRRGFRVRLLPLGAVLEVRPRPNLQGRVGLMEEDLKRLRLRRGDKVEAVPKV”, for which the “soluble on expression in E. coli” value is “soluble”.

On to “MLSPIENERSEIPSPEKLKLVEEPSDDESKFSNYDSDDWETLSDDLRLLDEEWGKSGGFDVDFSKVRHRFGRGAVHLDDDNMVSEPHETNRDLLNRLSNMAISFYNDKTGIKLELVKVLRANFHPSAAITLYITFEANDPSDGNQTKRYQAVVRYLSFDIEVCSCNPEPSSS”, for which the “soluble on expression in E. coli” value was “soluble”.

As to “MLSRTLRPISKVLRSSAKYSQAAGLPLNEGSPAPLPSEDRAISAKVSSLVEEIANLSLLDVSDLNWALKKRLNIPDQPLMAAAAAAPAAQAEAEAASDVPQKMTFTVKLTKFDDTKKIAIIKEIRNAIPGLNLVQAKKFVETAPVNVKEDLGKAEADELKAILEKAGATIEIV”, the “soluble on expression in E. coli” value was “not soluble”.

Turning to “MLSTVFRRTMATGRHFIAVCQMTSDNDLEKNFQAAKNMIERAGEKKCEMVFLPECFDFIGLNKNEQIDLAMATDCEYMEKYRELARKHNIWLSLGGLHHKDPSDAAHPWNTHLIIDSDGVTRAEYNKLHLFDLEIPGKVRLMESEFSKAGTEMIPPVDTPIGRLGLSICYDVRFPELSLWNRKRGAQLLSFPSAFTLNTGLAHWETLLRARAIENQCYVVAAAQTGAHNPKRQSYGHSMVVDPWGAVVAQCSERVDMCFAEIDLSYVDTLREMQPVFSHRRSDLYTLHINEKSSETGGLKFARFNIPADHIFYSTPHSFVFVNLKPVTDGHVLVSPKRVVPRLTDLTDAETADLFIVAKKVQAMLEKHHNVTSTTICVQDGKDAGQTVPHVHIHILPRRAGDFGDNEIYQKLASHDKEPERKPRSNEQMAEEAVVYRNLM”, the “soluble on expression in E. coli” value is “soluble”.

In the case of “MLSVDYENFDLISYLYNLVRQIPDGMVSTYGDLAEALGDPVAARSVGFMLSINKEPDYIPCYKVVPHDGSVGNYTHPLGSAEKMRRLIRDGITITNGHISNFEKVRFREFKTDYPLRKLRELQFKIGRLYDDRNDYSLDTIAAFDVSYKETRGYASKVVYNKGKIGAYVYSSDSMFPYIPGYLAFKEFKFIRALYDNETMILIDGNGILHPRFAGLATHAGVSLKTASIGIAKHLINCTVKGSDLLISGVVAGKMIGHHTIVSPGNRINVEEAGRLIEQREGKEMRSLLRLAHNLTRLHIETNGNIARYDFSTRNTAIQSSLEHHHHHH”, the “soluble on expression in E. coli” value is “not soluble”.

Regarding “MLTDGSYFHLHLVSDSTGETLITVSRAVTAQYANVTPVEHVYPLVRSQKQLDRVLQEIEEAPGIVLFTLLETELVNRLEAKCQEINSPSLSIIGPVMQLFEAYLGASTMGRVGAQHTLNAEYFQRIDALNYSMMHDDGQHVEGLEEADVVLVGVSRTSKTPTSIYLANRGIRTANVPLVAGIPIPHQLETLKKPLVVSLHASPERLIQVRQNRLLSLGAGSGNDSYIDRQAVTDEVLLARKLSAKYGWSLLDVTRRSIEETAAAIMKLLADRQRQRVPELEHHHHHH”, the “soluble on expression in E. coli” value was “not soluble”.

As for “MLTIERHEQIVKLVQEKEVVTIHDLVEYTNASESTIRRDLTELEKQKKLKRIHGGASVLKKRREEPTMAEKTVKNNHEKKKIAELAASFVEDGDCLFLDAGTTTYELIPFIKTKKIVVVTNGLDSISALLEAGVETYVIGGTVKQGTRAFVGRHAIQSLQTFRFDKAFLGINGVHLEDGFTTPDPQEAYVKETALSLSREAFMLVDHSKFGETTFATVAPIHAATIVTSSQVEQQVIQAYETQTAVKVVTLLEHHHHHH”, the “soluble on expression in E. coli” value is reported as “soluble”.

Consider “MLTIQFLCPLPNGLHARPAWELKEQCSQWQSEITFINHRQNAKADAKSSLALIGTGTLFNDSCSLNISGSDEEQARRVLEEYIQVRFIDSDSVQPTQAELTAHPLPRSLSRLNPDLLYGNVLASGVGVGTLTLLQSDSLDSYRAIPASAQDSTRLEHSLATLAEQLNQQLRERDGESKTILSAHLSLIQDDEFAGNIRRLMTEQHQGLGAAIISNMEQVCAKLSASASDYLRERVSDIRDISEQLLHITWPELKPRNKLVLEKPTILVAEDLTPSQFLSLDLKNLAGMILEKTGRTSHTLILARASAIPVLSGLPLDAIARYAGQPAVLDAQCGVLAINPNDAVSGYYQVAQTLADKRQKQQAQAAAQLAYSRDNKRIDIAANIGTALEAPGAFANGAEGVGLFRTEMLYMDRDSAPDEQEQFEAYQQVLLAAGDKPIIFRTMDIGGDKSIPYLNIPQEENPFLGYRAVRIYPEFAGLFRTQLRAILRAASFGNAQLMIPMVHSLDQILWVKGEIQKAIVELKRDGLRHAETITLGIMVEVPSVCYIIDHFCDEVDFFSIGSNDMTQYLYAVDRNNPRVSPLYNPITPSFLRMLQQIVTTAHQRGKWVGICGELGGESRYLPLLLGLGLDELSMSSPRIPAVKSQLRQLDSEACRELARQACECRSAQEIEALLTAFTPEEDVRPLLALENIFVDQDFSNKEQAIQFLCGNLGVNGRTEHPFELEEDVWQREEIVTTGVGFGVAIPHTKSQWIRHSSISIARLAKPIGWQSEMGEVELVIMLTLGANEGMNHVKVFSQLARKLVNKNFRQSLFAAQDAQSILTLLETELTF”, for which the “soluble on expression in E. coli” value is “soluble”.

As to “MLTLVGTYPPIRCGIATFNRDLREALLREGVPSQVAVVAHPEEVALPFPQEVVRVVAKEDREGYRALARLLRGPVILQHEYGLYGGKWGDYVLDLLEAQGPKLVVLHTLLQAPPPGLGEADLRYMQGLLRAMAERAQAFVALHPEGEGLLRALGVRIPVAHIPHGVPDLPRPPKEALKRALGLEGAFLLFTYGLLGPGKGLEFALKVLARVLPHNPRVRYLVAGRLHPNLERHEGRRYLERVREMAEALGVGEAFLLREGYLSEEELYRLAGAADLFLLPYPNLEQVSSGTLSYALALGKAVLSTPFRHARAALAAGRGVLLPLEEEAWAQAVLALAESPERLREMEERAYAYARDFTWPRVARAYRRLLEEVADVRPRVA”, the “soluble on expression in E. coli” value is given as “soluble”.

As to “MLTQYRQAQEDILRGRVKVRVVGQDKGGGVVMGEGVEIAPGARIEGPVLIGGACHIATGAVVGPFTVLGPYTRVEEGATVRRSVLWDNVYTGEGANVRGAVVCSRASLQRRVQVYEGAVIGDGTQVDAGAEVRPEVKVWPEKTLEHHHHHH”, the “soluble on expression in E. coli” value is on record as “not soluble”.

On to “MLVFISNSRLSESEVQKLRDKHLIDDFIQRENKGYDFAAWHDGMEFVGFENLKQYDSVTVMNDTCFGPLWDMAPIYDNYESNPNVDFWGMTNHQGIKAGDIYIHEHLQSYFISFKKRLVESSVFQKFWKSVESFEDVQKVIDNYETLYTKKFRDAGFNYESILNTIPLNDKFFHSNFTIHYPHVLLDTGVPFIKVKTFDLTQHLAPYLLKEIEKRTDYPVELILSHMSDMSLPTPPYLLDRKVIEKSSQTYSDTKKIAVHLHTYYVDLLEDFLKQFENFHFTYDLFLTTDSEDKKAEIQSILDKNGKVARIFITGNRGRDVIPMLKLKDELSAYDYIGHFHTKKSPEYPYWVGDSWRNELFSMLIQPADNIIANLERDDRLGLVIADIPSFFRYTKIVDPWNENRFAEGMNDLWERMDLGRDIDFDKMNTFIMSYGTFIWFKYDALKPLFDLDLQDEEIPAEPIPQHTILHSIERILVYLAWARRYDYAIAKNDIYITPFVDNVVLNIRPDTLPNTYINFDNIGGIKGALKYIIVGPGTAVKYIFRRIKRKFKSLEHHHHHH”, for which the “soluble on expression in E. coli” value is reported as “soluble”.
